Data on five molecules can be found in US20230021388A1 (VELOSBIO, published 2023).

Changes are numbered by the printed parent chain. Names and notes keep the numbering of the source. Values joined by “and” are separate entries in the source; they are usually repeats but may differ in a detail not shown here. Identical values can stand only once.

In assay [1] the target is T1, human ROR1 on live cells (human, UniProt Q01973 30-937).
T1 construct: ROR1-transfected MEC cells (~56,000 copies/cell) or JeKo-1 cells (~13,000 copies/cell); the cell line is named under assay; also called ROR1-transfected MEC cells; JeKo-1 cells
The experiment in a line: flow cytometry on live JeKo-1 cells, Fab detected with anti-HA-PE. The procedure:
(§1) ROR1 binding was quantitated using flow cytometry and 2.5E5 ROR1-transfected MEC cells or JeKo-1 cells for each concentration of Fab variant. The cells were placed in 50 μL of PBS with 2% FBS. Next, the cells were diluted with an equal volume of 2× stock of the test Fab variant and the cells and antibody were co-incubated on ice for 20 min. The cells were then washed 3 times with 300 μL of FACS buffer and were resuspended in 100 μL of a 70-fold dilution of anti-HA.11-PE conjugate, clone 16B12 (BioLegend, cat. #901517) and incubated on ice with reduced light for 20 min. Subsequently, the cells were washed 3 times with 300 μL of FACS buffer and fixed with 2% paraformaldehyde for 10 min at 25° C. The cells then were washed 2 times with 300 μL of FACS buffer and analyzed on a Miltenyi MACSQuant Analyzer.

Assay [2] deals with T2, recombinant human ROR1 extracellular domain (human, UniProt Q01973 30-406).
T2 construct: biotinylated for the filter lifts; also called huROR1-ECD; human ROR1-ECD
The experiment in a line: ELISA, soluble Fab on coated huROR1-ECD.

The target in assay [3] is T2, recombinant human ROR1 extracellular …. Put plainly: ELISA, soluble Fab on coated huROR1-ECD. As to the method: (§2) The previously described filter lift assay provides a visual, qualitative assessment of antigen binding (Example 1). In order to assess the ROR1 binding activity of Ab1 Fab in a more quantitative fashion, an ELISA assay was developed. A 96-well Costar-3366 plate was coated with 50 μL/well of 1 μg/mL human ROR1-ECD (ACROBiosystems, cat. #RO1-H522y) in PBS overnight at 4° C. The plate was rinsed once with PBS-T and blocked with 100 μL/well of 5% M-P for 1 h at 25° C. Fab samples were serially diluted 3-fold using 5% M-P and 50 μL/well was incubated for 1 h at 25° C. The plate was washed three times with PBS-T and 50 μL/well anti-human kappa, and HRP conjugate (Southern Biotech, cat. #2060-05) diluted 10,000-fold in 5% M-P was added for 1 h at 25° C. In certain assays (extended wash format), the plate was placed in large volumes (up to 1 L) of PBS-T and incubated, with mixing, for 2-5 h prior to the addition of anti-human kappa, HRP conjugate. The plate was washed three times with PBS-T, and developed with 50 μL/well 1-Step Ultra TMB-ELISA (Thermo Scientific, cat. #34028). The reaction was terminated by the addition of 2 N H2504 and the A450 was determined using a Spectramax plate reader.
This is another data set of the same source.

Assay [4] shares this target. The experiment in a line: ELISA, soluble Fab on coated huROR1-ECD. The source holds these as a separate data set.
Assay [5] shares this target. The experiment in a line: ELISA, soluble Fab on coated huROR1-ECD; WT control beside variant G27N (…, SEQ ID NO: 15). As to the method: as §2
Assay [6] shares this target. The experiment in a line: ELISA with prolonged wash (>1 h in PBS-T): huROR1-ECD coated on the plate, soluble Fab titrated, anti-human kappa-HRP detection. As to the method: as §2, with “The plate was washed three times with PBS-T, and developed with 50 μL/well 1-Step Ultra TMB-ELISA (Thermo Scientific, cat. #34028).” left out
Subsequently, the libraries were screened by capture lift to identify the strongest binding variants. The identity of the variants was determined by DNA sequencing and the relative affinities were characterized using an ELISA (described in Example 2) modified to enable further discrimination between the highest affinity variants. […]

The target is the same in assay [7]. Put plainly: ELISA with prolonged wash, soluble Fab on coated huROR1-ECD. As to the method:
as §2
(§3) Subsequently, the libraries were screened by capture lift to identify the strongest binding variants. The identity of the variants was determined by DNA sequencing and the relative affinities were characterized using an ELISA (described in Example 2) modified to enable further discrimination between the highest affinity variants. Specifically, following the initial incubation with soluble Fab, the plates were washed for a prolonged time (>1 h) in large volumes of PBS-T. The plates were then developed as described in Example 2.

Assay [8] has the same target. The description is as above. As to the method:
as §2, §3
This is another data set of the same source.

Assay [9] has the same target. The assay is described as above. The procedure: as §2, §3
The source holds these as a separate data set.

The target in assay [10] is T1, human ROR1 on live cells. Put plainly: flow cytometry on live ROR1-transfected MEC cells, Fab detected with anti-HA-PE. As to the method:
as §1
Initially, three anti-ROR1 Fab variants, each differing from the parental antibody by a single amino acid, were characterized for binding to human ROR1 using live ROR1-transfected MEC cells. […] The binding profiles of the variants on live ROR1-transfected MEC cells were consistent with the binding profiles obtained using recombinant huROR1-ECD and an ELISA (see Example 3, FIG. 5).

Assay [11] concerns the target T2, recombinant human ROR1 extracellular …. Put plainly: ELISA: huROR1-ECD coated on the plate, periplasmic scFv in serial dilution, anti-HA-HRP detection; x axis is Log [relative expression], no concentration unit. As to the method: scFv constructs were expressed and isolated from the periplasmic space using the same protocol that was used for Fabs (Example 2). In order to quantitate the relative levels of scFv expression of the three variants, a 96-well Costar-3366 plate was coated with 50 μl/well of 2 μg/mL anti-FLAG-unlabeled (Rockland, cat. #600-401-383) in PBS overnight at 4° C. The plate was washed three times with PBS containing 0.05% Tween 20 (PBS-T) and blocked with 100 μL of 5% M-P. The plate was washed once, then 50 μl/well of sample dilutions was added. Sample dilutions were performed with 5% M-P. The plates were incubated 1 h at 25° C., washed three times with PBS-T, and incubated with 50 μl/well of anti-HA HRP conjugate (Roche, cat. #12013819001), diluted 1,000-fold in 5% M-P for 1 h at 25° C. The plate was washed three times with PBS-T, and developed with 50 μl/well 1-Step Ultra TMB-ELISA (Thermo Scientific, Prod. #34028, Lot #SF2405221). The reaction was terminated by the addition of 2 N H2504 and the A450 was determined using a Spectramax plate reader.
Next, the binding of the isolated scFv variants to huROR1-ECD was assessed by ELISA as described in Example 2. A 96-well Costar-3366 plate was coated with 50 μl/well of 1 μg/mL human ROR-1 (AcroBiosystems, cat. #R01H522Y) in PBS overnight at 4° C. The plate was washed three times with PBS-T and blocked with 100 μL of 5% M-P. The plate was washed once, then 50 μl/well of 2-fold serial dilutions of sample was added. Sample dilutions were performed with 5% M-P. The plates were incubated 1 h at 25° C., washed three times with PBS-T, and incubated with 50 μl/well of anti-HA HRP conjugate (Roche, cat. #12013819001), diluted 1,000-fold in 5% M-P for 1 h at 25° C. […] The reaction was terminated by the addition of 2 N H₂SO₄ and the A450 was determined using a Spectramax plate reader. In order to compare the relative binding strength of the scFv variants, the expression levels as determined using the scFv ELISA described above were normalized to the Ab1 parental construct. […]

Assay [12] deals with T1, human ROR1 on live cells. Put plainly: flow cytometry on live JeKo-1 cells, scFv detected with anti-HA-PE; x axis is Log [relative scFv expression], no concentration unit.

T2 sequence (Q01973 30-406 limits assumed): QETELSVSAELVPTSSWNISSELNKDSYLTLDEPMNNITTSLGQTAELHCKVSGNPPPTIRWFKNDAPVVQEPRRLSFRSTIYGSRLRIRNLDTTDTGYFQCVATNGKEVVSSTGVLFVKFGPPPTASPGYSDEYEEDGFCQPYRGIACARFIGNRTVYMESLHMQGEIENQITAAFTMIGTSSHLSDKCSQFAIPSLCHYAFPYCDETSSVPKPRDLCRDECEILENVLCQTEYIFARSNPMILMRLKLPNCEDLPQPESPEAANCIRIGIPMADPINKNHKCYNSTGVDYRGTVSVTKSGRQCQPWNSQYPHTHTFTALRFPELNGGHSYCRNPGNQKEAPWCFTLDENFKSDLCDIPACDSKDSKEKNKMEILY
T1 sequence (Q01973 30-937 limits assumed): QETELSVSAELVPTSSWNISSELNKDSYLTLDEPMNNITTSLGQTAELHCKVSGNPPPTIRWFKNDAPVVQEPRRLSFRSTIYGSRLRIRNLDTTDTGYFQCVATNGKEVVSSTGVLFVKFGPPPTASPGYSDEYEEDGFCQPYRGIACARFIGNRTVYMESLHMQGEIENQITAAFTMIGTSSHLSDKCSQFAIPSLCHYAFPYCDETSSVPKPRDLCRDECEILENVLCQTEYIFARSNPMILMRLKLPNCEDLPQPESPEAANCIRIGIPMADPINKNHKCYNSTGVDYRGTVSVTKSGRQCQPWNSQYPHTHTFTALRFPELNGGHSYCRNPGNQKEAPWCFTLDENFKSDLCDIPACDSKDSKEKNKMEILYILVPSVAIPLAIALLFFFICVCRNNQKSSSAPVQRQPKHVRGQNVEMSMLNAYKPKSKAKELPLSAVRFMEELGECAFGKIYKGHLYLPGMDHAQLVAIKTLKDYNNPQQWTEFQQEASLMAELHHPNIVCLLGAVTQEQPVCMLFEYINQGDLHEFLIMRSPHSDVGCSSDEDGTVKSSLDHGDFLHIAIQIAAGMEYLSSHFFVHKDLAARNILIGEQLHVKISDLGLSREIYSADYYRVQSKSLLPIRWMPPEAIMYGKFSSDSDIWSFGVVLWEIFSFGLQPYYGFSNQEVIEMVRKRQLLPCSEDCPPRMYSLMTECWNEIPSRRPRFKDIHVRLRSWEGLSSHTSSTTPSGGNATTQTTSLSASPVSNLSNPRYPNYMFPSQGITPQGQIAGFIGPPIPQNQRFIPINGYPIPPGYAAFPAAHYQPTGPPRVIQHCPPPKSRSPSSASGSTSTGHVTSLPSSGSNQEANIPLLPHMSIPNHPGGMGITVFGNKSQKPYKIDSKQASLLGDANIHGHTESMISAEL

B1: Ab1 Fab (Fab, V domains shown)
VH: QVQLQESGPGLVKPSQTLSLTCTVSGYAFTAYNIHWVRQAPGQGLEWMGSFDPYDGGSSYNQKFKDRLTISKDTSKNQVVLTMTNMDPVDTATYYCARGWYYFDYWGHGTLVTVSS
VL: DIVMTQTPLSLPVTPGEPASISCRASKSISKYLAWYQQKPGQAPRLLIYSGSTLQSGIPPRFSGSGYGTDFTLTINNIESEDAAYYFCQQHDESPYTFGEGTKVEIK
notes: Soluble Fab from an M13 phage vector in E. coli: VL + kappa constant region, VH + human CH1 + His and HA tags; also called WT; parental Fab
For the molecule B1, the “EC50 (read off the curve)” value in assay [1] is approximately 10 nM. Also, the Kd is 3 nM in [2]; 7 nM in [3]; 3.2 nM and 6 nM in assay [4]; 3.2 nM in [5].

B2: Ab1 Fab variant H1 T32A (Fab, V domains shown)
VH: B1 VH with T30A
VL: B1 VL
notes: Fab
Turning to B2, the results for the “EC50 (read off the curve)” value in [6], in assay [1] and in assay [10] were approximately 3 nM, approximately 2 nM and approximately 0.05 µg/mL, respectively. In addition, the Kd in assay [7] is 3.6 nM and 1.6 nM and 2.7 nM; in assay [8], 3 nM and 2.7 nM; in assay [9] it was 3 nM; in assay [4] it was 1.5 nM. In [2], the “fold increase of binding against Ab1” value was approximately 4 fold.

B3: H1 T32A Ab1 scFv (scFv)
scFv: QVQLQESGPGLVKPSQTLSLTCTVSGYAFAAYNIHWVRQAPGQGLEWMGSFDPYDGGSSYNQKFKDRLTISKDTSKNQVVLTMTNMDPVDTATYYCARGWYYFDYWGHGTLVTVSSGGGGSGGGGSGGGGSADIVMTQTPLSLPVTPGEPASISCRASKSISKYLAWYQQKPGQAPRLLIYSGSTLQSGIPPRFSGSGYGTDFTLTINNIESEDAAYYFCQQHDESPYTFGEGTKVEIKRDYKDDDDKGKPGSGKPGSGKPGSGKPGSYPYDVPDYAS
notes: VH - linker - VL with C-terminal FLAG and HA tags; also called scFv variant H1 T32A; Ab1.1
Turning to B3, the binding result in assay [11] and in [12] was “binds” throughout.

B4: H1 T32A/L2 T69R Ab1 scFv (scFv)
scFv: B3 scFv with T185R
notes: VH - linker - VL with C-terminal FLAG and HA tags; also called scFv variant H1 T32A+L2 T69R; Ab1.2
For B4, the binding result in assay [11] and in [12] was “binds” each time.

B5: Ab1 scFv (scFv)
scFv: B3 scFv with A30T
notes: the pelB leader is not part of the entry; also called parental Ab1 scFv; Ab1 parental construct
On to B5, for which the binding result in assay [11] and in assay [12] was “binds” throughout.
